Assay results as given in patent US6570069B1, “Nucleic acids encoding plant inhibitors of apoptosis and transgenic cells and plants expressing them” (priority 2000, dated 2003).
Entries after “also recorded” stand apart in the source; their conditions may differ.

T1: pro-caspase-9 (Homo sapiens, UniProt P55211)
T1 construct: host or cells: cell-free in vitro transcription/translation
T1 sequence (P55211 1-416): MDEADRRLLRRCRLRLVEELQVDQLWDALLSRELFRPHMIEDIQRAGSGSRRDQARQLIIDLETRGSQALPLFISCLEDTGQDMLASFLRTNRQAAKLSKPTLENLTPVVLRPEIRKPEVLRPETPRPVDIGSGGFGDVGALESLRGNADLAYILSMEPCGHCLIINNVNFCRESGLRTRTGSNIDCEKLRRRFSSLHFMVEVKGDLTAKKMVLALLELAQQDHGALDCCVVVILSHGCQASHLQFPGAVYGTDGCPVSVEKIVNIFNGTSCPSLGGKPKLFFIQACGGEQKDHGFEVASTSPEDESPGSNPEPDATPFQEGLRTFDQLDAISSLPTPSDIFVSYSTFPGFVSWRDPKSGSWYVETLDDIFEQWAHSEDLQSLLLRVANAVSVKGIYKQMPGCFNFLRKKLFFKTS

T2: caspase-7 (Homo sapiens, UniProt P55210)
T2 construct: His6 (C); made in house
T2 sequence (P55210 24-198 limits assumed): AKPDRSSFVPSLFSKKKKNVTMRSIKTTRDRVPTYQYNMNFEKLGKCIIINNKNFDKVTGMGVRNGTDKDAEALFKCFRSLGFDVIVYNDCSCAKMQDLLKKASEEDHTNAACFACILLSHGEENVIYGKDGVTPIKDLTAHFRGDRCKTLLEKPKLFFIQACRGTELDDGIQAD
T2 sequence (P55210 207-303 limits assumed): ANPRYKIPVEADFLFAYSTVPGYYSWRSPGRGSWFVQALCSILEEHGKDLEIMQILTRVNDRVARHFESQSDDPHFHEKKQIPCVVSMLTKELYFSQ

B1: CpIAP: baculoviral (CpGV) inhibitor of apoptosis protein; complete ORF expressed myc-tagged or as GST-fusion (protein)
chain: MSDLRLEEVRLNTFEKWPVSFLSPETMAKNGFYYLGRSDEVRCAFCKVEIMRWKEGEDPAADHKKWAPQCPFVKGIDVCGSIVTTNNIQNTTTHDTIIGPAHPKYAHEAARVKSFHNWPRCMKQRPEQMADAGFFYTGYGDNTKCFYCDGGLKDWEPEDVPWEQHVRWFDRCAYVQLVKGRDYVQKVITEACVLPGENTTVSTAAPVSEPIPETKIEKEPQVEDSKLCKICYVEECIVCFVPCGHVVACAKCALSVDKCPMCRKIVTSVLKVYFS
modifications: left off: a dimerising Fc or GST
notes: complete ORF expressed myc-tagged or as GST-fusion
B2: SfIAP: cellular IAP cloned from Spodoptera frugiperda, protein of 377 amino acids (SEQ ID NO:3); GST-fusion when recombinant (protein, listed as Spodoptera frugiperda)
chain: MWSCSLPCWNTKKSGLQMDITKVASNGSSSTLTLFKSGSLEAKIRPLAPLMLPTPSYDSNAGSPSLSPSTPCSSSSFSIDKTDNHDTFGFSADTVDMRKEDERMKTFEKWPVSFLSGEQLARNGFYYLGRRDEARCAFCKVEIMRWVEGDDPAKDHQRWAPQCPFVRKLNGTAAADTGSSGQDECGARAAPSGTSPPRMAGPVHPRYASEAARLRSFKDWPRCMRQKPEELAEAGFFYTGQGDKTKCFYCDGGLKDWENHDVPWEQHARWFDRCAYVQLVKGREYVQKVISEACEVSASEAERDVAPARTAEPSPPAEAPENSVDDSKLCKICYAEERNVCFVPCGHVVACAKCALAADKCPMCRRTFQNAVRLYFS
modifications: GST fusion when recombinant; fall armyworm inhibitor of apoptosis protein (SfIAP)

Experiments:
pro-caspase-9 = target: T1, pro-caspase-9; assay: GST pull-down binding of [35S]-pro-caspase-9; design: species or system mammalian; settings: GST fusion protein on glutathione-Sepharose
Protocol: [^35S]Pro-caspase-9 was in vitro transcribed and translated in the presence of [^35S]L-methionine using TNT kit from Promega. Protein were desalted and exchanged into buffer (20 mM HEPES pH 7.5, 10 mM KCl, 1.5 mM MgCl2, 1 mM EDTA and 1 mM DTT) with Bio-spin P-6 columns (Bio-Rad). […] After incubation at 4 ° C. for 1 hour, beads were removed by centrifugation and washed twice with 0.5 ml of 50 mM Tris (pH 7.5), 150 mM NaCl, 2 mm DTT before analysis by SDS-PAGE and autoradiography.

caspase-7 = target: T2, caspase-7; assay: Binding to recombinant purified caspase-7; design: species or system mammalian
Protocol: pGEX4T-1-SfIAP and pGEX4T-1 -CpIAP plasmids were introduced into E. coli strain BL21 (DE3) containing the plasmid pT-Trx. GST fusion proteins were obtained by induction with 0.05 mM IPTG at 25° C. for 8 hours, then purified using glutathione-Sepharose, essentially as described (Deveraux, Q., Welsh, K. & Reed, J. Methods of Enzymology in press). Caspases-3, and -7, containing C-terminal His6-tags, and caspase-8 containing an N-terminal His6-tag were purified as described previously (Stennicke, H. R. & Salvesen, G. S. (I1997) J. Biol. Chem. 272, 25719-25723; Stennicke, H., et al., (1998) J. Biol. Chem. 273, 27084-27090; Stennicke, H., et al., (1999) J. Biol. Chem. 274, 8359-8362). Caspase-9 lacking the CARD domain (ΔCARD-caspase-9) was constructed by truncating the cDNA and introducing a start codon substituting Val139. The resulting cDNA was subcloned into pET-23b and expressed in BL21 (DE3), yielding fully processed enzyme when cells were induced using 0.2 mM IPTG at OD600=0.6 for 4 hrs (Stennicke, H., Deveraux, Q., Humike, E., Reed, J., Dixit, V. & Salvesen, G. (1999) J. Biol. Chem. 274, 8359-8362). […] Concentrations of purified enzymes were determined from absorbance at 280 nm based on the molar absorption coefficients: caspase-3 (A280=26,000M−1 cm−1), caspase-7 (A280=24,500 M−1 cm−1), caspase-9 (A280=30,010M−1 cm−1). […]

[1] = test system: caspase-3 and similar DEVD-cleaving proteases in cell extracts treated with cyto c; assay: Cell-free caspase activation induced by cyto c in HEK 293 cytosolic extracts; assay type: biochemical, human; settings: for suppression of pro-caspase-3 processing (immunoblot): cyto c-treated extracts; for effect on hydrolysis of Ac-DEVD-AFC (caspase activity): recombinant protein, cell extracts treated with cyto c
Protocol: Caspase activity was assayed by release of 7-amino-4-trifluoromethyl-coumarin (AFC) from Ac-DEVD or Ac-LEHD-containing synthetic peptides (Calbiochem) using continuous-reading instuments as described (Quan, L. T. et al., (1995) J. Biol. Chem. 270:10377-10379).
Cytosolic extracts were prepared as described (Deveraux, Q., Takahashi, R., Salvesen, G. S. & Reed, J. C. (1997) Nature 388, 300-303) using human embryonic kidney (HEK) 293 cells. Cells were washed with ice-cold buffer A (20 mM HEPES pH 7.5, 10 mM KCl, 1.5 mM MgCl2, 1 mM EDTA and 1 mM DTT), suspended in 1 volume of buffer A, incubated on ice for 20 mins, and then disrupted by 15 passages through a 26-gauge needle. Cell extracts were purified by centrifugation at 15000 g for 12 mins and supernatants were stored at −80 ° C. For initiating caspase activation, either 100 nM of purified recombinant caspase-8 or 1 μM horse heart cytochrome c (Sigma) together with 1 mM dATP was added to extracts (Deveraux, Q. L., et al., (1998) EMBO J. 17, 2215-2223).
To further explore the mechanisms by which SfIAP and CpIAP inhibit mammalian apoptosis, a cell-free system in which exogenously added active caspase-8 or cyto c induces activation of caspase-3 and similar proteases, as measured by hydrolysis of Ac-DEVD-AFC (Quan, L. T. et al., (1995) J. Biol. Chem. 270, 10377-10379) was used. Caspase-8 and cyto c trigger the same apoptosis pathways in extracts which are activated by Fas and Bax in intact cells.

Row | Molecule | binding to pro-caspase-9 (autoradiography) (pro-caspase-9) | binding to caspase-7 (caspase-7) | suppression of pro-caspase-3 processing (immunoblot) [1] | effect on hydrolysis of Ac-DEVD-AFC (caspase activity) [1]
1 | B1 | associated with pro-caspase-9 | neither bound | suppressed the processing of pro-caspase-3 in cyto c-treated | completely blocked the hydrolysis of Ac-DEVD-AFC
2 | B2 | associated with pro-caspase-9 | neither bound | suppressed the processing of pro-caspase-3 in cyto c-treated | completely blocked the hydrolysis of Ac-DEVD-AFC; also recorded: able to inhibit cyto c-induced activation of DEVD-cleaving caspases
